These results are taken from patent EP0946727B1.

The target of test [1] is rhesus CD18 (rhesus) (UniProt H9Z8N5). The experiment in a line: blocking of rhesus lymphocyte adhesion to human keratinocytes.
The target is the same in test [2]. The experiment in a line: blocking of rhesus lymphocyte adhesion to recombinant human ICAM-1 on plates.
Test [3] deals with human CD11a (human) (UniProt P20701). The experiment in a line: FACScan on Jurkat cells.
For test [4] the target is unchanged. Description: blocking of Jurkat cell adhesion to human keratinocytes (ICAM-1).
Test [5] shares this target. Description: saturation binding of 125I-antibody to human peripheral blood mononuclear cells, Kd(app).
Test [6] shares this target. The experiment in a line: saturation binding, human lymphocytes, donor 1, Kd(app).
The target is the same in test [7]. The experiment in a line: binding to Jurkat cells (FACScan).
For test [8] the target is unchanged. Description: saturation binding, human lymphocytes, donor 2, Kd(app).
Test [9] shares this target. Description: cell-based or functional assay.
Test [10] has the same target. Description: cell binding, human CD11a.

Sequence of humanized MHM24 IgG1 (antibody) (main, form in doubt): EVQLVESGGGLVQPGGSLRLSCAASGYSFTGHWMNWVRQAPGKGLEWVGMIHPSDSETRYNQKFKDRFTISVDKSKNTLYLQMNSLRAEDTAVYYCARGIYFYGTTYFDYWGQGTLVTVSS
Sequence of humanized MHM24 IgG1 (antibody) (main, form in doubt): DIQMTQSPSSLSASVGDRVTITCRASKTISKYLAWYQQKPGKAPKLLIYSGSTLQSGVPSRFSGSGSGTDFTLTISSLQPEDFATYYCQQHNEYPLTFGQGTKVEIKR
Sequence of chimeric MHM24 IgG1 (antibody) (main, form in doubt): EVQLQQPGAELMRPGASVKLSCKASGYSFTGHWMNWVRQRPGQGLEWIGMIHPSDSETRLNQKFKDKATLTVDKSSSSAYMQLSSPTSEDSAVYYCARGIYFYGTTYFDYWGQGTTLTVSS
Sequence of chimeric MHM24 IgG1 (antibody) (main, form in doubt): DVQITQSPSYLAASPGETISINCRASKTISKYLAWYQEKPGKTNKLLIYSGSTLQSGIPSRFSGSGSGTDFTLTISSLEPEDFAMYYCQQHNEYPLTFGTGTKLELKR
Sequence of human CD11a (human) (P20701 26-1170): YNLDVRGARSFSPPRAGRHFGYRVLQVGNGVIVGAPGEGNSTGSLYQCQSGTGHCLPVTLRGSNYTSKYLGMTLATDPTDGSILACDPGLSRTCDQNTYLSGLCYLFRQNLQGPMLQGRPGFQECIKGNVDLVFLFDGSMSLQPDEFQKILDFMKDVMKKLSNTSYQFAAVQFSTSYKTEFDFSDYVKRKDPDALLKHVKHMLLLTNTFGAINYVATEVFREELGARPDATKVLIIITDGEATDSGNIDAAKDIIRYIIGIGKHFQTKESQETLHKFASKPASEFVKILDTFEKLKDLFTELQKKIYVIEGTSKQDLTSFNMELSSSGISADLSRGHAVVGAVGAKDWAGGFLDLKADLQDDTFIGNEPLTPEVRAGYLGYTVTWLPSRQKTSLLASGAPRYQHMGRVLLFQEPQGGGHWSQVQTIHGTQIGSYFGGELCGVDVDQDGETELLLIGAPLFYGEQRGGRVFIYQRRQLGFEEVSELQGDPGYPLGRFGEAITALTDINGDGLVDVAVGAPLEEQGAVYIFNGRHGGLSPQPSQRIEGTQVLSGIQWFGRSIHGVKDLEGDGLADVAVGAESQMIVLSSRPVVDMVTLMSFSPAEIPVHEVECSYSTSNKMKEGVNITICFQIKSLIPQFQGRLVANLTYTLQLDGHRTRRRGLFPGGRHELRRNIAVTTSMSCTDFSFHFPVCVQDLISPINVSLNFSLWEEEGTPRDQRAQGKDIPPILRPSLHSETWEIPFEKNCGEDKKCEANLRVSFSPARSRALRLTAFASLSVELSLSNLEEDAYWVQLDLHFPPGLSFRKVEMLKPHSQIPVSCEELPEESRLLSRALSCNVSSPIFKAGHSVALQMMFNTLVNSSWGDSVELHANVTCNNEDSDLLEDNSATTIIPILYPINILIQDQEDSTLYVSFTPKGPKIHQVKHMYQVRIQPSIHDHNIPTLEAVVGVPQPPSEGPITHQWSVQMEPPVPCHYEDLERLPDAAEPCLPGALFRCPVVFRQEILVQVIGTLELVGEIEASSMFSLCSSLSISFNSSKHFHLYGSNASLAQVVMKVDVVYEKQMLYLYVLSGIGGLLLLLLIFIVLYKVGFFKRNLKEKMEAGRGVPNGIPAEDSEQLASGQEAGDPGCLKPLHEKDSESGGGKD

Regarding murine anti-human CD18 antibody MHM23, the IC50 with rhesus CD18 (rhesus) [1] amounted to 1.6 nM; in the test with rhesus CD18 (rhesus) [2], 1.2 nM.

As for chimeric MHM24 IgG1 (antibody), in the test with human CD11a (human) [3], the half-maximal effective concentration (EC50) amounted to 5.2 ng/mL and the EC50 F(ab)/EC50 F(ab)-2 worked out at 0.006. This substance also showed an IC50 in the test with human CD11a (human) [4] of 0.1 nM.

For the substance humanized MHM24 IgG1 (antibody), the Kd is 0.15 nM with human CD11a (human) [5], 0.11 nM in the test with human CD11a (human) [6] and 0.18 nM with human CD11a (human) [8]. Besides, in the test with human CD11a (human) [3], the EC50 F(ab)/EC50 F(ab)-2 turned out to be 0.004. Besides, the IC50 in the test with human CD11a (human) [4] amounted to 0.13 nM. The 50% effective concentration (EC50) with human CD11a (human) [7] stood at 0.042 nM. The same substance displayed an IC50, human mixed lymphocyte response (MLR) with human CD11a (human) [9] of 0.38 nM. Besides, in the test with human CD11a (human) [10], the Var.EC50/HuIgG1 EC50 amounted to 1.

For murine MHM24 (antibody), the Kd was 0.15 nM with human CD11a (human) [5], 0.16 nM with human CD11a (human) [6] and 0.13 nM in the test with human CD11a (human) [8]. In the test with human CD11a (human) [4], this substance had a half-inhibitory concentration (IC50) of 0.09 nM. The substance also showed an IC50, human mixed lymphocyte response (MLR) with human CD11a (human) [9] of 0.19 nM.
